Measured values published in patent US20050059089A1 (priority 2003, published 2005).

Target: T1, mouse GPCR142 (Mus musculus, UniProt Q7TQP4)
T1 construct: The complete coding region of the mouse GPCR142 was deposited in GenBank; expressed in transfected cells; CHO membranes (GTPγS, by the general protocol); HEK293 with Gα16 (Ca2+)
T1 sequence (Q7TQP4 1-414): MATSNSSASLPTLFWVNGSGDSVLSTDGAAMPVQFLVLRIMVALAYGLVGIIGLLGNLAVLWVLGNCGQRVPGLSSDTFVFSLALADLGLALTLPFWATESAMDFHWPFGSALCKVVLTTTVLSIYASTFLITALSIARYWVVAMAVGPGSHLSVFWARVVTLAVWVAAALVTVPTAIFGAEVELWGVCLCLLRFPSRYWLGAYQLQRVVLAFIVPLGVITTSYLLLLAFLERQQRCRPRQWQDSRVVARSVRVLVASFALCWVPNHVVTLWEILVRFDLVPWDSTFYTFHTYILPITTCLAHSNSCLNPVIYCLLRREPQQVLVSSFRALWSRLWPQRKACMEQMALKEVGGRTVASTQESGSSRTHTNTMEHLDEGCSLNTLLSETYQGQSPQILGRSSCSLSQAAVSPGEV
Experiment: Ca2+ mobilization assay, mouse GPCR142 and Gα16
Type: cell-based
Conditions: cells expressing mouse GPCR142 and Gα16
Method: Human embryonic kidney (HEK) 293 cells were transfected with GPCR135,.GPCR142 or co-transfected with Gqi5 (Conklin et al. (1993), Nature 363, 274-280) or Gα16 (Amatruda et al. (1991), Proc. Natl. Acad. Sci. U.S.A. 88, 5587-5591) expressing plasmids using LipofectAmine. Two days after transfection, cells were detached with PBS plus 10 mM EDTA. The detached cells were washed with DMEM-F12 medium (without phenol red, Invitrogen) and seeded in black poly-D lysine coated 96-well plates (BD Biosciences, San Jose, Calif.) at a cell density of 50,000 cell/well.

Substance: relaxin3: Human relaxin3 (SEQ ID NO: 6), produced recombinantly; mature peptide of A- and B-chain linked by disulfide bridges
- Ca2+ response: did not stimulate detectable Ca^2+ response
